We go through one molecule from US20040072293A1, “Novel physiologically active peptide and use thereof” (priority 2001, published 2004).

One assay deals with ileum or distal colon. The following applies: cited from earlier work.
Assay [1] deals with T1, the protein of the invention (ZAQ) (Homo sapiens, UniProt Q8TCW9).
T1 construct: expressed in transfected cells
Nature of the assay: activation of the protein of the invention and intracellular Ca ion concentration in cells expressing it. The class given is cell-based.

In another assay the test system is proximal colon. The conditions noted are these: cited from earlier work.

T1 sequence (Q8TCW9 whole entry): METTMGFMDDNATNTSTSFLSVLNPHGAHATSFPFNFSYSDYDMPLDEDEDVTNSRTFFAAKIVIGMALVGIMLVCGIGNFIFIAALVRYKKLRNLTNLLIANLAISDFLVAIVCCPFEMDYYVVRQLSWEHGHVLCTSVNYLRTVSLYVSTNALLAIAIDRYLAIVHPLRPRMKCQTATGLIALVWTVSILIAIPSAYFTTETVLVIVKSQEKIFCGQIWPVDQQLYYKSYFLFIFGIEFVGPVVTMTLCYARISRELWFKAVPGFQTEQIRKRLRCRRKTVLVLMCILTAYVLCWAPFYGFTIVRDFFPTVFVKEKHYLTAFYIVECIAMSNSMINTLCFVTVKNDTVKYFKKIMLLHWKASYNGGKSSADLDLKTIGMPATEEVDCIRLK

B1: MIT1 (protein, listed as Dendroaspip polylepis)
chain: AVITGACERDLQCGKGTCCAVSLWIKSVRVCTPVGTSGEDCHPASHKIPFSGQRMHHTCPCAPNLACVQTSPKKFKCLSK
On to B1, for which the “contraction in the ileum or distal colon” value in the assay with ileum or distal colon was “induced contraction in the ileum or distal colon”. In the assay on ileum or distal colon (ileum, distal colon (contraction) and proximal colon (relaxation), comparator 40 mM potassium chloride), the “degree of contraction/relaxation compared with potassium chloride” value is reported as “as potent as comparable to 40 mM potassium chloride”. Besides, the “activation of the protein of the invention” value in assay [1] is on record as “activated the protein of the invention”. Besides, the “intracellular Ca ion concentration” value in assay [1] (cells in which the protein of the invention was expressed) is recorded as “increased intracellular Ca ion concentration”. Moreover, the “relaxation in the proximal colon” value in the assay with proximal colon is reported as “relaxation in the proximal colon”.
